The source of these data is patent publication US20240092876A1 (priority 2020, published 2024).

For experiment [1], the system named is B/Victoria/504/2000 (Yamagata). Further details: species or system influenza B virus. The conditions noted are these: in vivo, po, 10 mg/kg.
Another experiment has as its system H3N2 A/Hong Kong/8/68. Details: species or system influenza A virus. Particulars: in vivo, po, 10 mg/kg.
The next experiment relates to H1N1 A/Puerto Rico/8/34. Details: species or system influenza A virus. Particulars: in vivo, po, 10 mg/kg.
For experiment [2], the system named is B/Brisbane/60/2008 (Victoria). Details: species or system influenza B virus. Particulars: in vivo, po, 10 mg/kg.
Experiment [3] deals with B/Yamanashi/166/1998(Yamagata) (influenza B virus). The experiment can be described thus: flow cytometry on NA-expressing cells.
The target in experiment [4] is N8_A_harbor_seal_New_hampshire_179629_2011 (influenza A virus). The experiment can be described thus: flow cytometry on NA-expressing cells.
Experiment [5] deals with N1_A_Stockholm_18_2007 (influenza A virus). The experiment can be described thus: flow cytometry on NA-expressing cells.
For experiment [6], the target named is N2 neuraminidase from A/Washington/01/2007 (Influenza A virus A/Washington/01/2007). As to the kind of experiment: flow cytometry on NA-expressing cells.
For experiment [7], the target named is N1_NA_A_swine_Hebei_0116_2017 (influenza A virus). The experiment can be described thus: flow cytometry on NA-expressing cells.
The target in experiment [8] is N2_A_Leningrad_134_17_57 (influenza A virus). As to the kind of experiment: flow cytometry on NA-expressing cells.
In experiment [9] the target is N1 neuraminidase from A/Swine/Jiangsu/J004/2018 (Influenza A virus A/Swine/Jiangsu/J004/2018 (H1N1)). As to the kind of experiment: flow cytometry on NA-expressing cells.
Experiment [10] has as its target N2_NA_A_South_Australia_34_2019 (influenza A virus). As to the kind of experiment: flow cytometry on NA-expressing cells.
The target of experiment [11] is B/Malaysia/2506/2004(Victoria) (influenza B virus). As to the kind of experiment: flow cytometry on NA-expressing cells.
For experiment [12], the target named is B/Lee/10/1940(Ancestral) (influenza B virus). The experiment can be described thus: flow cytometry on NA-expressing cells.
Experiment [13] concerns the target N9 neuraminidase from A/Anhui/1/2013 (Influenza A virus A/Anhui/1/2013 (H7N9)). The experiment can be described thus: flow cytometry on NA-expressing cells.
Experiment [14] has as its target N3_A_Canada_rv504_2004 (influenza A virus). The experiment can be described thus: flow cytometry on NA-expressing cells.
Experiment [15] has as its target N6_A_Swine_Ontario_01911_1_99 (influenza A virus). The experiment can be described thus: flow cytometry on NA-expressing cells.
Experiment [16] deals with N1 neuraminidase from A/California/07/2009 (Influenza A virus A/California/07/2009 (H1N1)). As to the kind of experiment: flow cytometry on NA-expressing cells.
The target in experiment [17] is N7_A_Netherlands_078_03 (influenza A virus). The experiment can be described thus: flow cytometry on NA-expressing cells.
Experiment [18] deals with N2 A/South Australia/34/2019 (245Gly+) (Influenza A virus A/South Australia/34/2019).
For experiment [19], the target named is N1 neuraminidase from A/Swine/Jiangsu/J004/2018 (Influenza A virus A/Swine/Jiangsu/J004/2018 (H1N1)).
Experiment [20] addresses N2 A/South Australia/34/2019 (245Gly+) (Influenza A virus A/South Australia/34/2019). This is another data set of the same source.
Experiment [21] has as its target N1 neuraminidase from A/Swine/Jiangsu/J004/2018 (Influenza A virus A/Swine/Jiangsu/J004/2018 (H1N1)). This is another data set of the same source.

Where “and” joins values, the source holds several entries; their conditions need not be identical. Equal values may be shown once. Read-outs that look alike come from different tables or passages of the source. Bounds are passed on as bounds.

In the experiment with N2, 1G01 (antibody) gave a Kd of less than 1 pM, a koff of less than 1e-07 s⁻¹ and a kon of 40200 M⁻¹ s⁻¹.

Take `CCOC(=O)C1=C[C@@H](OC(CC)CC)[C@H](NC(C)=O)[C@@H](N)C1` [OSE, oseltamivir]: the “reduction in viral titres in comparison to the vehicle” value in experiment [1] is recorded as 1 log; in the experiment with H3N2 A/Hong Kong/8/68, 1 log; in the experiment with H1N1 A/Puerto Rico/8/34, 1 log; in [2], “exception”.

With FNI3 (antibody), the MFI normalized vs wt in experiment [3], in experiment [4], in experiment [5], in experiment [6], in experiment [7] and in experiment [8] was 1 each time. The MFI normalized vs wt in experiment [9], in [10], in experiment [11], in [12], in experiment [13] and in experiment [14] was 1 in each case. The MFI normalized vs wt in experiment [15], in experiment [16] and in experiment [17] was 1 each time. For the same compound, the Alexa 647-A+ (percent of cells in the positive gate) was 59.2% and 54% in experiment [18]; 83.7% and 79.6% in [19]; 49.1% and 48.4% in experiment [20]; 83.9% and 85.2% in [21]. The same compound showed a Kd with N2 of less than 1 pM. Besides, the koff with N2 is less than 1e-07 s⁻¹. Also, the kon with N2 was determined as 11500 M⁻¹ s⁻¹.

On to FNI9 (antibody), for which the Alexa 647-A+ (percent of cells in the positive gate) was 66.1% and 71.3% in [18]; 82.1% and 78% in experiment [19]; 68.8% and 57% in [20]; 84% and 83.5% in experiment [21]. The compound also showed a dissociation constant (Kd) with N2 of less than 1 pM.
